We go through six proteins from publication PMC11076500, “Impact of distinct FG nucleoporin repeats on Nup98 self-association” (Nature Communications, 2024).

B1: FG-repeat domain of human Nup98 (Nup98^FG; residues 1-384), wild type (protein)
chain: MFNKSFGTPFGGGTGGFGTTSTFGQNTGFGTTSGGAFGTSAFGSSNNTGGLFGNSQTKPGGLFGTSSFSQPATSTSTGFGFGTSTGTANTLFGTASTGTSLFSSQNNAFAQNKPTGFGNFGTSTSSGGLFGTTNTTSNPFGSTSGSLFGPSSFTAAPTGTTIKFNPPTGTDTMVKAGVSTNISTKHQCITAMKEYESKSLEELRLEDYQANRKGPQNQVGAGTTTGLFGSSPATSSATGLFSSSTTNSGFAYGQNKTAFGTSTTGFGTNPGGLFGQQNQQTTSLFSKPFGQATTTQNTGFSFGNTSTIGQPSTNTMGLFGVTQASQPGGLFGTATNTSTGTAFGTGTGLFGQTNTGFGAVGSTLFGNNKLTTFGSSTTSAPSFG
B2: Nup98^FG F228S mutant (protein)
chain: MFNKSFGTPFGGGTGGFGTTSTFGQNTGFGTTSGGAFGTSAFGSSNNTGGLFGNSQTKPGGLFGTSSFSQPATSTSTGFGFGTSTGTANTLFGTASTGTSLFSSQNNAFAQNKPTGFGNFGTSTSSGGLFGTTNTTSNPFGSTSGSLFGPSSFTAAPTGTTIKFNPPTGTDTMVKAGVSTNISTKHQCITAMKEYESKSLEELRLEDYQANRKGPQNQVGAGTTTGLSGSSPATSSATGLFSSSTTNSGFAYGQNKTAFGTSTTGFGTNPGGLFGQQNQQTTSLFSKPFGQATTTQNTGFSFGNTSTIGQPSTNTMGLFGVTQASQPGGLFGTATNTSTGTAFGTGTGLFGQTNTGFGAVGSTLFGNNKLTTFGSSTTSAPSFG
B3: Nup98^FG F319S mutant (protein)
chain: MFNKSFGTPFGGGTGGFGTTSTFGQNTGFGTTSGGAFGTSAFGSSNNTGGLFGNSQTKPGGLFGTSSFSQPATSTSTGFGFGTSTGTANTLFGTASTGTSLFSSQNNAFAQNKPTGFGNFGTSTSSGGLFGTTNTTSNPFGSTSGSLFGPSSFTAAPTGTTIKFNPPTGTDTMVKAGVSTNISTKHQCITAMKEYESKSLEELRLEDYQANRKGPQNQVGAGTTTGLFGSSPATSSATGLFSSSTTNSGFAYGQNKTAFGTSTTGFGTNPGGLFGQQNQQTTSLFSKPFGQATTTQNTGFSFGNTSTIGQPSTNTMGLSGVTQASQPGGLFGTATNTSTGTAFGTGTGLFGQTNTGFGAVGSTLFGNNKLTTFGSSTTSAPSFG
B4: Nup98^FG F102S mutant (protein)
chain: MFNKSFGTPFGGGTGGFGTTSTFGQNTGFGTTSGGAFGTSAFGSSNNTGGLFGNSQTKPGGLFGTSSFSQPATSTSTGFGFGTSTGTANTLFGTASTGTSLSSSQNNAFAQNKPTGFGNFGTSTSSGGLFGTTNTTSNPFGSTSGSLFGPSSFTAAPTGTTIKFNPPTGTDTMVKAGVSTNISTKHQCITAMKEYESKSLEELRLEDYQANRKGPQNQVGAGTTTGLFGSSPATSSATGLFSSSTTNSGFAYGQNKTAFGTSTTGFGTNPGGLFGQQNQQTTSLFSKPFGQATTTQNTGFSFGNTSTIGQPSTNTMGLFGVTQASQPGGLFGTATNTSTGTAFGTGTGLFGQTNTGFGAVGSTLFGNNKLTTFGSSTTSAPSFG
B5: Nup98^FG F102S/F319S double mutant (protein)
chain: MFNKSFGTPFGGGTGGFGTTSTFGQNTGFGTTSGGAFGTSAFGSSNNTGGLFGNSQTKPGGLFGTSSFSQPATSTSTGFGFGTSTGTANTLFGTASTGTSLSSSQNNAFAQNKPTGFGNFGTSTSSGGLFGTTNTTSNPFGSTSGSLFGPSSFTAAPTGTTIKFNPPTGTDTMVKAGVSTNISTKHQCITAMKEYESKSLEELRLEDYQANRKGPQNQVGAGTTTGLFGSSPATSSATGLFSSSTTNSGFAYGQNKTAFGTSTTGFGTNPGGLFGQQNQQTTSLFSKPFGQATTTQNTGFSFGNTSTIGQPSTNTMGLSGVTQASQPGGLFGTATNTSTGTAFGTGTGLFGQTNTGFGAVGSTLFGNNKLTTFGSSTTSAPSFG
B6: Nup98^FG(298-327) peptide (peptide, UniProt P52948 298-327, looked up)
peptide: TGFSFGNTSTIGQPSTNTMGLFGVTQASQP
notes: Forms amyloid fibrils; each fibril layer holds five peptides (four parallel, one antiparallel); source: synthetic peptide (solid-phase synthesis, Genscript)

The target of the first data set is P52948. Nature of the data set: 1D 1H NMR (loss of the signal of soluble protein); 100 μM protein in 50 mM sodium phosphate, 1 mM TCEP; pH raised from 3 to 7 with NaOH, measured immediately (deadtime ~5 min); 5 °C; amide region integrated; self-association into particles not detectable by NMR. The following applies: other: 1D 1H NMR (loss of the signal of soluble protein).
Consider B1, for which the “percent of the protein aggregated just after changing the pH to 7” value was 67 % of the wild-type protein forms aggregates.
Same read-out and setting: to B2 belongs “in the F228S mutant 46% of the protein aggregates”; to B3, “only 28 and 23 % of the protein aggregated, respectively”; to B4, “only 28 and 23 % of the protein aggregated, respectively”.
Still for that read-out and setting: to B5 belongs “only 28 and 23 % of the protein aggregated, respectively”.

A further data set concerns the molecule itself. Briefly: cryo-EM structure; amyloid fibrils from 2 mM peptide in water, 25 °C for one day; helical reconstruction, 2.67 Å; five peptides in each layer.
Conditions: not given
Regarding B6, the binding result is “binds”.
